The target of the assay is SARS-CoV-2 spike receptor binding domain (RBD), S protein residues 319-539 (SARS-CoV-2, UniProt P0DTC2 319-539). Description: ELISA on coated RBD. (ELISA stands for enzyme-linked immunosorbent assay.)

Numbering of substitutions follows the chain as printed.

B1: C504 (antibody, V domains shown)
VH: QVQLQESGPGLVKPSETLSLTCTVSGGSISSSYWNWIRQSPGKGLEWIGYIYYDGYTTFNPSLKSRVTISVDTSKNQFSLKLSSVTAADTAFYYCAAGLKGRSSSWYEYWGQGTLVTVSS
VL: DIQMTQSPSSLSASVGDRVTITCRASQSISSYLNWYQQKPGKAPKLLIYATSSLQSGVPSRFSGSGSGTDFTLTITSLQPEDFATYYCQQTYSSPHTFGQGTKLEIK
Usually EC50 stands for the concentration at which the effect is half-maximal. Lower therefore signals greater potency. With B1, the concentration for a half-maximal effect (EC50) is 6.55 ng/mL.

B2: C506 (antibody, V domains shown)
VH: EVQLVESGGGLVQPGGSLRLSCAASGFTFSSYDMHWVRQGTGKGLEWVSVIGTAGDAYYPGSVKGRFTISRENAKNSLYLQMNSLRAGDTAVYYCARMVYDSSGFKGYFDLWGRGTLVTVSS
VL: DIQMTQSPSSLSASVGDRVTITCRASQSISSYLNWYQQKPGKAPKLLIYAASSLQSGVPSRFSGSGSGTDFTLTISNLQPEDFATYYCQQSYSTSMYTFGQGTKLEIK
The molecule B2 came in with an EC50 of 16 ng/mL.

B3: C510 (antibody, V domains shown)
VH: QVQLQQWGAGLLKPSETLSRTCAVYGGSFSGYYWSWFRQSPGKGLEWIGEINHSGSTNYNPSLKNRVTISVDTSKNQFSLMLSSVTAADTAVYYCARGGFGVVINYYYSGMDVWGRGTTVTVSS
VL: not shown
The molecule B3 had a 50% effective concentration (EC50) of 5.94 ng/mL.

B4: C511 (antibody, V domains shown)
VH: EVQLVESGGGLVQPGGSLRLSCAATEITVSSNYMTWVRQAPGKGLEWVSVIYPGGSTFYADSVKGRFSISRDNSKNTLYLQMNSLRAEDTAVYYCARDLVVYGLDCWGQGTLVTVSS
VL: DIQLTQSPSFLSASVGDRVTITCRASQGISSYLAWYQQKPGKAPKLLIYAASTLQSGVPSRFSGSGSGTEFTLTISSLQPEDFATYYCQQLNTYPPPFGGGTKVEIK
Molecule B4 returned an EC50 of 1.33 ng/mL.

B5: C509 (antibody, V domains shown)
VH: QVQLQESGPGLVKPSGTLSLTCAVSGGSISSSNWWSWVRQPPGKGLEWIGEIYNSGSTNYNPSLKSRVTILVDKSKNQFSLKLSSVTAADTAVYYCAGSYSNYIGGVWFDPWGQGTLVTVSS
VL: EIVLTQSPATLSLSPGERATLSCRASQSVSTYLAWYQQKPGQAPRLLIYDASNRATGIPARFSGSGSGTDFTLTISSLEPEDFAVYYCQQRNNWLTFGGGTKVEIK
In turn, B5 registered an EC50 of 4.44 ng/mL.

B6: C503 (antibody, V domains shown)
VH: QVQLQESGPGLVQPSGTLSLSCTVTGGSISSNNWWSWVRQSPVKGLEWIGEIYHNGNINYNPSLKSRVTMSIDKSKNHFSLKLSSVTAADTAVYYCARGDVLDWFDPWGQGTLVTVS
VL: QSALTQPASVSGSPGQSITFSCTGTSSDVGAYNYISWYQQHPGKAPKLMIYDVNNRPSGVSRRFSGSKSGNTASLTISGLQSEDEADYFCSSYAGNSTVRFGGGTKLTVL
B6 yielded an EC50 of 6.48 ng/mL.

B7: C597 (antibody, V domains shown)
VH: QVQLVQSGPEVKKPGTSVKVSCKASGFTFTNSAVQWVRQSRRQRLEWIGWIVVGSGNTNYAQKFQERVTITRDMSTSTAYMELSSLRSEDTAVYYCAAVDCNSTSCYDAFDIWGQGTMVTVSS
VL: EIVLTQSPGTLSLSPGERATLSCRASQSFRSSYLAWYQQKPGQAPRLLIYGASSRATGIPDRFSGSGSGSDFTLTISRLEPEDFAVYYCQQYDISPWTFGQGTKVEIK
As for B7, the response was half-maximal at 3.77 ng/mL (EC50).

B8: C598 (antibody, V domains shown)
VH: QVQLVQSGPEVKKPGTSVKVSCKASGFTFSSSAVQWVRQARGQRLEWIGWIVVGSGNTNYAQKFQERVTITRDMSTSTAYMELSSLRSEDTAVFYCAAPYCNVTTCFDGFNIWGRGTMVTVSS
VL: B7 VL with F29V, L34F, G51A, S70T, V86L, D93G, I94S
B8: a half-maximal response (EC50) required 3.78 ng/mL.

B9: C505 (antibody, V domains shown)
VH: EVQLLESGGGLVQPGGSLRLSCADSGFSFSTYGMSWVRQAPGKGLEWVSTISGSGDNTYHADSVKGRFTISRDNSKNTLYLQMNSLRAEDTAVYYCAKNIAEMSTFDDYFYYYGMDVWGQGTTVTVSS
VL: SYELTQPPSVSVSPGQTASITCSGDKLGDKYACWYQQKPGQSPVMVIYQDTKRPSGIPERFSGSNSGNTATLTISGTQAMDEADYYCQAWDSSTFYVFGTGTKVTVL
In the case of B9, the EC50 came out at 9.08 ng/mL.

B10: C517 (antibody, V domains shown)
VH: EVQLVESGGGLVQPGGSLRLSCAASEFIVSRNYMSWVRQAPGKGLEWVSLIYSGGSTYYADSVKGRFTISRDNSKNTLYLQMNSLRAEDTAMYYCARDIAGRLDYWGQGTLVTVSS
VL: DIQMTQSPSSLSASVGDRVTITCQASQDISKYLNWYQQKPGKAPKLLIYDASNLETGVPSRFSGSGSGTDFTFTISSLQPEDFATYYCQHYDSLSRLTFGGGTKVEIK
B10: the midpoint of the response, the EC50, lay at 0.87 ng/mL.

B11: C514 (antibody, V domains shown)
VH: B10 VH with S30T, S53P, Y58F, Y79F, Q81H, M92V, I99L
VL: B10 VL with S30N, K31N, Y32F, F83I, T85I, H90Q
Molecule B11 had an EC50 of 0.82 ng/mL.

B12: C516 (antibody, V domains shown)
VH: QVQLVQSGAEVKKPGSSVKVSCKASGGTFSSYAISWVRQAPGQGLEWMGRIIPMLVIATYARKFQGRVTITADKSTSTAYMELSSLRSEDTAVYYCARGVVAATPGNFDIWGQGTMVTVSS
VL: EIVMTQSPATLSVSPGERATLSCRASQSVSSNLAWYQQKPGQAPRLLIYGASTRATGIPARFSGSGSGTEFTLTISSLQSEDFAVYYCQQYNNGLTFGGGTKVEIK
With B12, a half-maximal response (EC50) required 5.72 ng/mL.

B13: C502 (antibody, V domains shown)
VH: QVQLVQSGAEVKKPGSSVKVSCKASGDTFSSHAINWVRQAPGQGLEWMGRSIPMLGVTTSAQKFKGRVTITADHSTSTVFMDLSSLRSDDTAIYYCARGVVGATPGSFDLWGQGTMVTVSS
VL: B12 VL with E17K, S30R, K39R, G50D, S52A, A60T, N92D
In the case of B13, a half-maximal response (EC50) required 6.48 ng/mL.

B14: C507 (antibody, V domains shown)
VH: EVQLVESGGGVVQPGRSLRLSCAASGFTFSSYAIHWVRQAPGKGLEWVAVISFDGSNKYYRDSVKGRFTISRDNGKNTLYLQMNSLRAEDTAVYYCAKAALGYCTNGVCYCDNWGQGTLVTVSS
VL: NFMLTQPHSVSESPGKTVTISCTGSSGSIASNYVQWYQQRPGSAPTTVIYEDNQRPSGVPDRFSGSIDSSSNSASLSISGLKTEDEADYYCQSYDINSLWVFGGGTRLTVL
In turn, B14 displayed an EC50 of 5.6 ng/mL.

B15: C540 (antibody, V domains shown)
VH: EVQLVESGGGLVQPGGSLRLSCAASGFTFRNYDMHWVRQVAGKGLEWVSAIGTSGDTYYPDSVKGRFTISRENAKNSVYLQMNNLRAGDTAVYFCVRDREISGWTGWYFDLWGRGTLVTVSS
VL: DIQMTQSPSSLSASVGDRVTITCRASQTIHNYLNWYQQIPGKAPRLLIYATNTLQSGVPSRFSGSGSGTDFTLTITGLQPEDFATYYCQQSYSTPPITFGQGTRLEIK
As to B15, it took 2.9 ng/mL to reach a half-maximal effect (EC50).

B16: C539 (antibody, V domains shown)
VH: EVQLVESGGGLVQPGRSLRLSCAASGFTFDDYALHWVRQAPGKGLEWVSGISWNGDSIGYADSVKGRFTISRDNAKNSLSLQMNSLTAEDTALYYCAKGVEYSSSSNCDYWGQGTLVTVSS
VL: DIQMTQSPSSVSASVGDRVTITCRASQDISSWLAWYQQKPGKAPKLLISLASGLQSGVPSRFSGSGSETDFTLTISSLQPEDFATYYCQQTNSFPLTFGGGTKVEI
B16: a half-maximal effect (EC50) was put at 1.3 ng/mL.

B17: C547 (antibody, V domains shown)
VH: QVQLVESGGGVVQPGRSLRLSCAASGFTFSSYGMHWVRQAPGKGLEWVAVISYDGSNKYYADSVKGRFTISRDNSKNTLYLQMNSLRAEDTAVYYCAKDTPGGDDILTGWGLYGMDVWGQGTTVTVSS
VL: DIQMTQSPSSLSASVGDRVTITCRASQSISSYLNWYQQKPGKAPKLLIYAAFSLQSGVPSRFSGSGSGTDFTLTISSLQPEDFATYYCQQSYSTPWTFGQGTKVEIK
Consider B17, for which the EC50 worked out at 1.78 ng/mL.

B18: C543 (antibody, V domains shown)
VH: B17 VH with A23T, S31T, Y32A, Y59D, N77S, A88P, L107M
VL: B1 VL with Q37H, T51A, S52I, S67F, T76S, T85I, T91S, S94T, H96W, L104V
In turn, B18 had an EC50 of 1.28 ng/mL.

The values above are taken from patent US20220195015A1 (published 2022).
